Results from publication PMC9253567, “The Role of ZAP and TRIM25 RNA Binding in Restricting Viral Translation” (Frontiers in Cellular and Infection Microbiology, 2022).

What was measured:
[1] = target: T1, myc-tagged TRIM25 WT (tripartite motif-containing protein 25) (UniProt Q14258 1-630); test: cell-based or functional assay
[2] = target: T1, myc-tagged TRIM25 WT (tripartite …); test: co-IP; myc IP (anti-myc beads) of myc-TRIM25 WT from lysates of ZAP KO 293T cells co-transfected with FLAG-ZAPS or FLAG-ZAPL WT or mutants; FLAG-ZAP detected by immunoblot; FLAG IP buffer (100 mM Tris-HCl 8.0, 150 mM NaCl, 5 mM EDTA, 1 mM DTT, 5% glycerol, 0.1% NP-40), 4°C, 45 min; FLAG IP band divided by myc IP band (ImageJ); conditions: partners not purified

T1 sequence (Q14258 whole entry): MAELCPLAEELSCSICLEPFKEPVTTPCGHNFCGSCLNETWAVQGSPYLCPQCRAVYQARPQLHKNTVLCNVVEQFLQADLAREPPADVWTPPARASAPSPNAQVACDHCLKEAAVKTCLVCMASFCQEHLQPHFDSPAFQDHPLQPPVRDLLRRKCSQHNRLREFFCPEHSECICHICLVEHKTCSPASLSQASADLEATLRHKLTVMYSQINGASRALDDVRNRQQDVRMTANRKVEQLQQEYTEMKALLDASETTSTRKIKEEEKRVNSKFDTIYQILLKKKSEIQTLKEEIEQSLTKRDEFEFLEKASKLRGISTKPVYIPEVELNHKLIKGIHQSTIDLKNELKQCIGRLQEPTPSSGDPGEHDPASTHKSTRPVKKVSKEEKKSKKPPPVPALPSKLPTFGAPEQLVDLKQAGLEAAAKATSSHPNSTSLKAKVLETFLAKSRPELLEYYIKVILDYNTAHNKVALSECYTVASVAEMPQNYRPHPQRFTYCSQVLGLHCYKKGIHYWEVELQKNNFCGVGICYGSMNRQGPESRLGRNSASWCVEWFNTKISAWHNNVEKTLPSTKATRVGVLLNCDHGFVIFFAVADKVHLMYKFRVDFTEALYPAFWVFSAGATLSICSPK

B1: FLAG-tagged ZAPL H191R (ZnF 4 mutant) (natural protein, human, UniProt Q7Z2W4-1 1-902, looked up)
chain: MADPEVCCFITKILCAHGGRMALDALLQEIALSEPQLCEVLQVAGPDRFVVLETGGEAGITRSVVATTRARVCRRKYCQRPCDNLHLCKLNLLGRCNYSQSERNLCKYSHEVLSEENFKVLKNHELSGLNKEELAVLLLQSDPFFMPEICKSYKGEGRQQICNQQPPCSRLHICDHFTRGNCRFPNCLRSRNLMDRKVLAIMREHGLNPDVVQNIQDICNSKHMQKNPPGPRAPSSHRRNMAYRARSKSRDRFFQGSQEFLASASASAERSCTPSPDQISHRASLEDAPVDDLTRKFTYLGSQDRARPPSGSSKATDLGGTSQAGTSQRFLENGSQEDLLHGNPGSTYLASNSTSAPNWKSLTSWTNDQGARRKTVFSPTLPAARSSLGSLQTPEAVTTRKGTGLLSSDYRIINGKSGTQDIQPGPLFNNNADGVATDITSTRSLNYKSTSSGHREISSPRIQDAGPASRDVQATGRIADDADPRVALVNDSLSDVTSTTSSRVDDHDSEEICLDHLCKGCPLNGSCSKVHFHLPYRWQMLIGKTWTDFEHMETIEKGYCNPGIHLCSVGSYTINFRVMSCDSFPIRRLSTPSSVTKPANSVFTTKWIWYWKNESGTWIQYGEEKDKRKNSNVDSSYLESLYQSCPRGVVPFQAGSRNYELSFQGMIQTNIASKTQKDVIRRPTFVPQWYVQQMKRGPDHQPAKTSSVSLTATFRPQEDFCFLSSKKYKLSEIHHLHPEYVRVSEHFKASMKNFKIEKIKKIENSELLDKFTWKKSQMKEEGKLLFYATSRAYVESICSNNFDSFLHETHENKYGKGIYFAKDAIYSHKNCPYDAKNVVMFVAQVLVGKFTEGNITYTSPPPQFDSCVDTRSNPSVFVIFQKDQVYPQYVIEYTEDKACVIS
notes: zinc finger antiviral protein (ZAP), long isoform ZAPL, cloned from pTRIP-TagRFP-hZAPL; source: ZAP KO 293T cells, transfected (pcDNA3.1-3XFLAG), in lysate; not shown: 3XFLAG, N-terminal, kept
JEV translation inhibition: fold inhibition of Renilla luciferase from a replication-defective JEV replicon, relative to empty plasmid, ZAP KO 293T cells, 4 h after replicon transfection [1]: 9.05 fold inhibition relative to empty plasmid transfection | ZAP-TRIM25 interaction (co-IP, FLAG-ZAP band over myc-TRIM25 band, ImageJ) [2]: 0.899
